Measured values from article PMC9482650, “Quantitative fragmentomics allow affinity mapping of interactomes” (Nature Communications, 2022).

Legend:
Assay in all cases: holdup assay
Parameters in all cases: key: below the threshold = too weak to quantify, mostly under pKd 3.1 to 4
Settings in all cases: plain residues with an end cap or a label only (N-terminal biotin on a linker: ado-ado)
ARHGEF11, O15085 = target: T1, ARHGEF11, O15085
T1 sequence (O15085 42-136, limits assumed, looked up): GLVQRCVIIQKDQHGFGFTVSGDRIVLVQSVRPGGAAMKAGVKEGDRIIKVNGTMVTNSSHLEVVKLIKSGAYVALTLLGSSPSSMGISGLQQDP

CARD11, Q9BXL7 = target: T2, CARD11, Q9BXL7
T2 sequence (Q9BXL7 662-765, limits assumed, looked up): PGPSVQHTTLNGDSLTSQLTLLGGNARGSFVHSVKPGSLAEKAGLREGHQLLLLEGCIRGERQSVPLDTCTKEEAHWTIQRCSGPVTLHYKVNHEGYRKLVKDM

DLG5_1, Q8TDM6 = target: DLG5_1, Q8TDM6
DLG5_1, Q8TDM6, sequence (Q8TDM6 617-713): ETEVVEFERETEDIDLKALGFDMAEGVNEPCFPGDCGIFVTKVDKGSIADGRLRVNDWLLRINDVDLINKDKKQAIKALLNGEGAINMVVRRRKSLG

DVL3, Q92997 = target: T3, DVL3, Q92997
T3 sequence (Q92997 244-331, limits assumed, looked up): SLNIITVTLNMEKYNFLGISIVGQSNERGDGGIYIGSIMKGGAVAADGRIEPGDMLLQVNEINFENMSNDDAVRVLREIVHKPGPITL

FRMPD1, Q5SYB0 = target: T4, FRMPD1, Q5SYB0
T4 sequence (Q5SYB0 52-145, limits assumed, looked up): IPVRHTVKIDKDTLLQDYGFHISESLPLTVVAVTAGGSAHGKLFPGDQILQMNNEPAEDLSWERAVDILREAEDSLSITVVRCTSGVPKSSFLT

GORASP1, Q9BQQ3 = target: GORASP1, Q9BQQ3
GORASP1, Q9BQQ3, sequence (Q9BQQ3 1-208): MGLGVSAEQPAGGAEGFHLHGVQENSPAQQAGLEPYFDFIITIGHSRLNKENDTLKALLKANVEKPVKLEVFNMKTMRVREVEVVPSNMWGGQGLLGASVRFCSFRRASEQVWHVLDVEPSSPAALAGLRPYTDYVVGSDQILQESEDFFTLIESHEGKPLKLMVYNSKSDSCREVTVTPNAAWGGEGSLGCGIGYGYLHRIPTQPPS

GRID2IP_2, A4D2P6 = target: GRID2IP_2, A4D2P6
GRID2IP_2, A4D2P6, sequence (A4D2P6 272-370): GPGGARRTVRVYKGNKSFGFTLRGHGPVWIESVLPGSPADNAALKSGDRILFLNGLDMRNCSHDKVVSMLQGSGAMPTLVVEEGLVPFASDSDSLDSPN

GRIP1_4, Q9Y3R0 = target: T5, GRIP1_4, Q9Y3R0
T5 sequence (Q9Y3R0 467-571, limits assumed, looked up): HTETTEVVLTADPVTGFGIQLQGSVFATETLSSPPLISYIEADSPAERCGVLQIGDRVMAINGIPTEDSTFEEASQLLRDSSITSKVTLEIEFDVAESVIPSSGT

GRIP2_3, Q9C0E4 = target: GRIP2_3, Q9C0E4
GRIP2_3, Q9C0E4, sequence (Q9C0E4 238-339): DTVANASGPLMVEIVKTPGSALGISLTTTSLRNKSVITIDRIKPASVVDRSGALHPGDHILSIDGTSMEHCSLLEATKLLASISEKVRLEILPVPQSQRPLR

GRIP2_6, Q9C0E4 = target: GRIP2_6, Q9C0E4
GRIP2_6, Q9C0E4, sequence (Q9C0E4 648-740): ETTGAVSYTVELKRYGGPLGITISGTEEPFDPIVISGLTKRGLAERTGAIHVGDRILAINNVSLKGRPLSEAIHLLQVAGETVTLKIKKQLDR

HTRA4, P83105 = target: T6, HTRA4, P83105
T6 sequence (P83105 378-476, limits assumed, looked up): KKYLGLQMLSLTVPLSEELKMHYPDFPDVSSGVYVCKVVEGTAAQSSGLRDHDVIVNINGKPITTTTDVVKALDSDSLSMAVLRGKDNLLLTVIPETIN

Inadl_3, Q8NI35 = target: Inadl_3, Q8NI35
Inadl_3, Q8NI35, sequence (Q8NI35 359-469): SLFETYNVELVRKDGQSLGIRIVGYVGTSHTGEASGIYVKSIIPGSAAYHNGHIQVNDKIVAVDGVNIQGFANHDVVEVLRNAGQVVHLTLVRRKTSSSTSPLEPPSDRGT

LIMK2, P53671 = target: LIMK2, P53671
LIMK2, P53671, sequence (P53671 143-248): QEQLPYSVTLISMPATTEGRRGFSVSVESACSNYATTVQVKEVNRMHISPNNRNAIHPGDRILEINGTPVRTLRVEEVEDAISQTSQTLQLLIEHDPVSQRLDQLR

LNX1_3, Q8TBB1 = target: LNX1_3, Q8TBB1
LNX1_3, Q8TBB1, sequence (Q8TBB1 500-596): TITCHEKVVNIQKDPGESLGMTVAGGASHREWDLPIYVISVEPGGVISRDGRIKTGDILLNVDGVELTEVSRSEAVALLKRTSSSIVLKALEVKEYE

LNX2_2, Q8N448 = target: T7, LNX2_2, Q8N448
T7 sequence (Q8N448 334-432, limits assumed, looked up): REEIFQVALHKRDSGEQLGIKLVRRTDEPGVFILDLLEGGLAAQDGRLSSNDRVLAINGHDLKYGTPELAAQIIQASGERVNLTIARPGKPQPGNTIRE

LNX2_3, Q8N448 = target: T8, LNX2_3, Q8N448
T8 sequence (Q8N448 463-564, limits assumed, looked up): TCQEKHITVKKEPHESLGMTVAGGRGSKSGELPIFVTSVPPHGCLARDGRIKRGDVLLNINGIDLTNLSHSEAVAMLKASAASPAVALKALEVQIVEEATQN

MAGI1_2, Q96QZ7 = target: MAGI1_2, Q96QZ7
MAGI1_2, Q96QZ7, sequence (Q96QZ7 456-580): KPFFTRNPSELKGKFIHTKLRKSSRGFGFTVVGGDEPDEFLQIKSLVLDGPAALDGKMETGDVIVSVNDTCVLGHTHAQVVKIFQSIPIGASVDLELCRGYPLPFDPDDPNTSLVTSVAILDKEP

MAGI2_5, Q86UL8 = target: MAGI2_5, Q86UL8
MAGI2_5, Q86UL8, sequence (Q86UL8 915-1017): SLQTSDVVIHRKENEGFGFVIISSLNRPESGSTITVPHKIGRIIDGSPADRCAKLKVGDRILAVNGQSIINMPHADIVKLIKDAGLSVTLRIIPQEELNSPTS

NHERF4_2, Q86UT5 = target: NHERF4_2, Q86UT5
NHERF4_2, Q86UT5, sequence (Q86UT5 220-308): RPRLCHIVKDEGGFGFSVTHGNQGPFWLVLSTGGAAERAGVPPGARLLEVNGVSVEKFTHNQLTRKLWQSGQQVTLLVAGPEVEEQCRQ

NOS1, P29475 = target: NOS1, P29475
NOS1, P29475, sequence (P29475 9-101): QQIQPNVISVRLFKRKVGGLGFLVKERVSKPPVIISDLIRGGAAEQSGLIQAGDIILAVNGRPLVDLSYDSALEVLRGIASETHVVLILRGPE

PARD3_3, Q8TEW0 = target: PARD3_3, Q8TEW0
PARD3_3, Q8TEW0, sequence (Q8TEW0 582-685): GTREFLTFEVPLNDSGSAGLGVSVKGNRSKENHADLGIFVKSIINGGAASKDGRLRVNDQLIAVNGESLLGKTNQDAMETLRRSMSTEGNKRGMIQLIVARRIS

PDZD2_2, O15018 = target: T9, PDZD2_2, O15018
T9 sequence (O15018 329-429, limits assumed, looked up): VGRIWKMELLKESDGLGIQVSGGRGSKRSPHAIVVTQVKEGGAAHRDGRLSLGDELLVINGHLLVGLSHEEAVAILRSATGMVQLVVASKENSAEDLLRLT

PDZRN3_1, Q9UPQ7 = target: T10, PDZRN3_1, Q9UPQ7
T10 sequence (Q9UPQ7 244-349, limits assumed, looked up): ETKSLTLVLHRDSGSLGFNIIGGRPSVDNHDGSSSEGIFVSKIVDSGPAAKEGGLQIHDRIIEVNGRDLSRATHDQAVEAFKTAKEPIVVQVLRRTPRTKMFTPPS

PTPN13_1, Q12923 = target: T11, PTPN13_1, Q12923
T11 sequence (Q12923 1088-1188, limits assumed, looked up): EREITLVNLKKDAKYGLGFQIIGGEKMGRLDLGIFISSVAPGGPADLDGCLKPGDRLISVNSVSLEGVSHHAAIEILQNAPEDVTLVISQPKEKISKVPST

RAPGEF6, Q8TEU7 = target: T12, RAPGEF6, Q8TEU7
T12 sequence (Q8TEU7 525-625, limits assumed, looked up): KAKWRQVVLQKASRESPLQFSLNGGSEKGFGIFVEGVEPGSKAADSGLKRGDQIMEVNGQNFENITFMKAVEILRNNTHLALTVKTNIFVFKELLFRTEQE

SNX27, Q96L92 = target: SNX27, Q96L92

B1: PLEKHA1, Q9HB21 (peptide)
chain: DDASLPVSDV
- pKd (ARHGEF11, O15085): 4.22
- pKd (CARD11, Q9BXL7): below the threshold
- pKd (DLG5_1, Q8TDM6): below the threshold
- pKd (DVL3, Q92997): below the threshold
- pKd (FRMPD1, Q5SYB0): below the threshold
- pKd (GORASP1, Q9BQQ3): below the threshold
- pKd (GRID2IP_2, A4D2P6): 4.35
- pKd (GRIP1_4, Q9Y3R0): below the threshold
- pKd (GRIP2_3, Q9C0E4): below the threshold
- pKd (GRIP2_6, Q9C0E4): below the threshold
- pKd (HTRA4, P83105): below the threshold
- pKd (Inadl_3, Q8NI35): below the threshold
- pKd (LIMK2, P53671): below the threshold
- pKd (LNX1_3, Q8TBB1): below the threshold
- pKd (LNX2_2, Q8N448): below the threshold
- pKd (LNX2_3, Q8N448): below the threshold
- pKd (MAGI1_2, Q96QZ7): below the threshold
- pKd (MAGI2_5, Q86UL8): below the threshold
- pKd (NHERF4_2, Q86UT5): below the threshold
- pKd (NOS1, P29475): below the threshold
- pKd (PARD3_3, Q8TEW0): below the threshold
- pKd (PDZD2_2, O15018): 5.49
- pKd (PDZRN3_1, Q9UPQ7): below the threshold
- pKd (PTPN13_1, Q12923): below the threshold
- pKd (RAPGEF6, Q8TEU7): below the threshold
- pKd (SNX27, Q96L92): below the threshold

B2: KCNA7, Q96RP8 (peptide)
chain: PPGKHLVTEV
- pKd (ARHGEF11, O15085): 5.2
- pKd (CARD11, Q9BXL7): below the threshold
- pKd (DLG5_1, Q8TDM6): below the threshold
- pKd (DVL3, Q92997): below the threshold
- pKd (FRMPD1, Q5SYB0): below the threshold
- pKd (GORASP1, Q9BQQ3): below the threshold
- pKd (GRID2IP_2, A4D2P6): 4.37
- pKd (GRIP1_4, Q9Y3R0): below the threshold
- pKd (GRIP2_3, Q9C0E4): below the threshold
- pKd (GRIP2_6, Q9C0E4): below the threshold
- pKd (HTRA4, P83105): 4.61
- pKd (Inadl_3, Q8NI35): 3.7
- pKd (LIMK2, P53671): below the threshold
- pKd (LNX1_3, Q8TBB1): below the threshold
- pKd (LNX2_2, Q8N448): 4.91
- pKd (LNX2_3, Q8N448): below the threshold
- pKd (MAGI1_2, Q96QZ7): 4.24
- pKd (MAGI2_5, Q86UL8): 4.73
- pKd (NHERF4_2, Q86UT5): below the threshold
- pKd (NOS1, P29475): 3.7
- pKd (PARD3_3, Q8TEW0): below the threshold
- pKd (PDZD2_2, O15018): 4.62
- pKd (PDZRN3_1, Q9UPQ7): below the threshold
- pKd (PTPN13_1, Q12923): below the threshold
- pKd (RAPGEF6, Q8TEU7): 3.52
- pKd (SNX27, Q96L92): 4.95

B3: SCN5A, Q14524 (peptide)
chain: SPDRDRESIV
- pKd (ARHGEF11, O15085): 3.51
- pKd (CARD11, Q9BXL7): below the threshold
- pKd (DLG5_1, Q8TDM6): below the threshold
- pKd (DVL3, Q92997): below the threshold
- pKd (FRMPD1, Q5SYB0): below the threshold
- pKd (GORASP1, Q9BQQ3): 3.71
- pKd (GRID2IP_2, A4D2P6): 3.63
- pKd (GRIP1_4, Q9Y3R0): below the threshold
- pKd (GRIP2_3, Q9C0E4): below the threshold
- pKd (GRIP2_6, Q9C0E4): below the threshold
- pKd (HTRA4, P83105): 3.9
- pKd (Inadl_3, Q8NI35): 3.56
- pKd (LIMK2, P53671): below the threshold
- pKd (LNX1_3, Q8TBB1): below the threshold
- pKd (LNX2_2, Q8N448): 4.44
- pKd (LNX2_3, Q8N448): below the threshold
- pKd (MAGI1_2, Q96QZ7): 3.51
- pKd (MAGI2_5, Q86UL8): 4.12
- pKd (NHERF4_2, Q86UT5): below the threshold
- pKd (NOS1, P29475): 3.7
- pKd (PARD3_3, Q8TEW0): 3.86
- pKd (PDZD2_2, O15018): 5.4
- pKd (PDZRN3_1, Q9UPQ7): 3.91
- pKd (PTPN13_1, Q12923): below the threshold
- pKd (RAPGEF6, Q8TEU7): below the threshold
- pKd (SNX27, Q96L92): 5.26

B4: TRIP6, Q15654 (peptide)
chain: ELSATVTTDC
- pKd (ARHGEF11, O15085): 4.61
- pKd (CARD11, Q9BXL7): below the threshold
- pKd (DLG5_1, Q8TDM6): below the threshold
- pKd (DVL3, Q92997): below the threshold
- pKd (FRMPD1, Q5SYB0): below the threshold
- pKd (GORASP1, Q9BQQ3): below the threshold
- pKd (GRID2IP_2, A4D2P6): 3.69
- pKd (GRIP1_4, Q9Y3R0): below the threshold
- pKd (GRIP2_3, Q9C0E4): below the threshold
- pKd (GRIP2_6, Q9C0E4): below the threshold
- pKd (HTRA4, P83105): below the threshold
- pKd (Inadl_3, Q8NI35): below the threshold
- pKd (LIMK2, P53671): below the threshold
- pKd (LNX1_3, Q8TBB1): below the threshold
- pKd (LNX2_2, Q8N448): 3.76
- pKd (LNX2_3, Q8N448): below the threshold
- pKd (MAGI1_2, Q96QZ7): below the threshold
- pKd (MAGI2_5, Q86UL8): below the threshold
- pKd (NHERF4_2, Q86UT5): below the threshold
- pKd (NOS1, P29475): below the threshold
- pKd (PARD3_3, Q8TEW0): below the threshold
- pKd (PDZD2_2, O15018): 4.2
- pKd (PDZRN3_1, Q9UPQ7): below the threshold
- pKd (PTPN13_1, Q12923): below the threshold
- pKd (RAPGEF6, Q8TEU7): below the threshold
- pKd (SNX27, Q96L92): 4.57
